PMC5798299

Assays:
[1] = biological target: BG505 SOSIP.v4.1 S306L/R308L-D7324 trimer (HIV-1 (clade A, BG505)); assay: native gel or EMSA; BN-PAGE of PGT145-purified trimers, Coomassie Blue stain
[2] = biological target: BG505 SOSIP.v4.1-D7324 trimer (HIV-1 (clade A, BG505)); assay: as above
[3] = biological target: BG505 SOSIP.664-D7324 trimer (PGT145-purified, 293F) (HIV-1 (clade A, BG505)); assay: as above
[4] = biological target: BG505 SOSIP.v5.2 S306L/R308L-D7324 trimer (HIV-1 (clade A, BG505)); assay: as above
[5] = biological target: BG505 SOSIP.v5.2-D7324 trimer (HIV-1 (clade A, BG505)); assay: as above
[6] = biological target: BG505 SOSIP.664-D7324 A316W trimer (unpurified, 293T) (HIV-1 (clade A, BG505)); assay: native gel or EMSA; BN-PAGE of unpurified Env proteins in 293T culture supernatants, Western blot with bNAb 2G12
[7] = biological target: BG505 SOSIP.664-D7324 trimer (unpurified, 293T) (HIV-1 (clade A, BG505)); assay: as above
[8] = biological target: BG505 SOSIP.664-D7324 R308L trimer (unpurified, 293T) (HIV-1 (clade A, BG505)); assay: as above
[9] = biological target: BG505 SOSIP.664-D7324 S306L trimer (unpurified, 293T) (HIV-1 (clade A, BG505)); assay: as above

BG505 SOSIP.v4.1 S306L/R308L-D7324 trimer (complex)
stoichiometry N [1]: 3

BG505 SOSIP.v4.1-D7324 trimer (complex)
stoichiometry N [2]: 3

BG505 SOSIP.664-D7324 trimer (PGT145-purified, 293F) (complex)
stoichiometry N [3]: 3

BG505 SOSIP.v5.2 S306L/R308L-D7324 trimer (complex)
stoichiometry N [4]: 3

BG505 SOSIP.v5.2-D7324 trimer (complex)
stoichiometry N [5]: 3

BG505 SOSIP.664-D7324 A316W trimer (unpurified, 293T) (complex)
stoichiometry N [6]: 3

BG505 SOSIP.664-D7324 trimer (unpurified, 293T) (complex)
stoichiometry N [7]: 3

BG505 SOSIP.664-D7324 R308L trimer (unpurified, 293T) (complex)
stoichiometry N [8]: 3

BG505 SOSIP.664-D7324 S306L trimer (unpurified, 293T) (complex)
stoichiometry N [9]: 3
